Assay results taken from US20250332264A1, “GhR-BINDING PEPTIDE AND COMPOSITION COMPRISING SAME” (priority 2021, published 2025).
Each block holds one molecule with its values, some of them ahead of it. Starred links: 1 amine or outer side, 2 acyl side, 3 side chain; linkers in the order of their positions; H or OH if unused. Positions of bridges follow the written chain, without caps; N, C: chain ends. Non-standard residues stand in square brackets, D forms with d. Residues, ends and D or L forms follow the SMILES beside them. Groups on a side chain read outwards from the residue. *: point of attachment. KCOpipzaa = N6-(4-(carboxymethyl)piperazine-1-carbonyl)-L-lysine, O=C(NCCCC[C@H](N[*:1])C(=O)[*:2])N1CCN(CC(=O)[*:3])CC1; A4pipaa = 4-amino-1-(carboxymethyl)piperidine-4-carboxylic acid, O=C(C1(N[*:1])CCN(CC(=O)[*:3])CC1)[*:2]; X3 = NC(=O)[C@H](CCCCN*)NC(=O)CC[C@H](NC(=O)CC[C@H](NC(=O)CCCCCCCCCCCCCCC(=O)O)C(=O)O)C(=O)O; X10 = NC(=O)[C@H](CCCCN*)NC(=O)CC[C@H](NC(=O)CC[C@H](NC(=O)CCCc1ccc(I)cc1)C(=O)O)C(=O)O; Trp(1-CH2CO) = O=C([C@H](Cc1cn(CC(=O)[*:3])c2ccccc12)N[*:1])[*:2]; Trp(5-OMe) = COc1ccc2[nH]cc(C[C@H](N)C(=O)O)c2c1; Butanoyl(4-(4-I-phenyl)) = O=C(CCCc1ccc(I)cc1)*; Trp(5-OH) = N[C@@H](Cc1c[nH]c2ccc(O)cc12)C(=O)O; Phe(4-COOH) = N[C@@H](Cc1ccc(C(=O)O)cc1)C(=O)O; Piperazinyl(4-CH2COOH) = O=C(O)CN1CCN(*)CC1; C16 diacid = O=C(O)CCCCCCCCCCCCCCC(=O)*; γGlu = O=C(O)[C@H](CCC(=O)[*:2])N[*:1]; Aad = N[C@@H](CCCC(=O)O)C(=O)O; Ahp(2) = CCCCC[C@H](N)C(=O)O; NMeK = CN[C@@H](CCCCN)C(=O)O; Aib = CC(C)(N)C(=O)O; CO = O=C([*:1])[*:2]; Sar = CNCC(=O)O

Assays:
[1] = biological target: T1, Recombinant human GhR-Fc protein (Homo sapiens, UniProt P10912); experiment: Binding activity of hGhR binding peptide by surface plasmon resonance (SPR), Biacore T200, single-cycle kinetics; conditions: human GhR-Fc immobilized on CM5 chip, KD calculated from ka and kd
T1 construct: purchased R&D Systems
Method: (§1) SPR assay was performed using Biacore T200 (cytiva: Former GE Healthcare). After the equilibration of Series S Sensor Chip CM5 (produced by cytiva: Former GE Healthcare) with Running Buffer (HBS-EP with 1% (v/v) DMSO), an EDC/NHS mixture was injected at a flow rate of 10 μL/min for 7 minutes to thereby activate the functional groups on sensor chip. Recombinant human GhR-Fc protein (R&D Systems) in 10 mM Acetate (pH4.0) was injected immobilized to at a flow rate of 5 μL/min. It took 7 minutes to immobilize the GhR on the substrate surfaces of the sensor chip. Then Ethanolamine was injected at a flow rate of 10 μL/min for 7 minutes. 1M Ethanolamine (aq.) was injected at a flow rate of 10 μL/min for 420 seconds for capping.
(§2) Using these Peptide Samples, kinetics of peptides against human GhR-Fc protein were measured. The method adopted for sample measurement was a single-cycle kinetics method. The analysis was conducted using the evaluation software provided with Biacore T200. A DMSO correction curve obtained by solvent correction measurements was applied for the analysis. Kinetics fitting was done on the difference data obtained by subtracting the baseline data from sample measurement data. KD values were calculated based on the association rate constant (ka) and dissociation rate constant (kd).
Furthermore, “obs. m/z [M+2H]2+” indicates the ESI-MS(+) observed value. Unless otherwise specified, this is bivalent ([M+2H]^2+).

[2] = biological target: T2, Recombinant human GhR-Fc protein (R&D Systems) (human, UniProt P10912 19-264, limits assumed); experiment: SPR, Biacore T200, single-cycle kinetics, GhR-Fc immobilised on CM5
T2 construct: Bought from R&D Systems; Amine-coupled to a CM5 chip in the SPR assay; also called hGhR; recombinant human GhR protein fused to Fc portion of human IgG; not shown: Fc portion of human IgG
T2 sequence (looked up): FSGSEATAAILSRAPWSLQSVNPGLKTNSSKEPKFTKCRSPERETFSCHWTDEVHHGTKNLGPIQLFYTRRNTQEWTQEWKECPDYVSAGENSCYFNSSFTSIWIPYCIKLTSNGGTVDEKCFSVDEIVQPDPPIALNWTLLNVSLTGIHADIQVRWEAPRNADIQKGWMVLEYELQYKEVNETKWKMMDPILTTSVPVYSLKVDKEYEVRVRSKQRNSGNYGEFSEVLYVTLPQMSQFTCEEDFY
Method: as §1, with “capping. 10 mM Peptides in DMSO were diluted to obtain 10 uM with Running Buffer, and prepared 100 nM, 50 nM, 25 nM, 10 nM, 5 nM of each peptide solutions (Peptide Samples).” for “capping.”
as §2

T1 sequence (P10912 with tags, fused parts or gaps limits assumed): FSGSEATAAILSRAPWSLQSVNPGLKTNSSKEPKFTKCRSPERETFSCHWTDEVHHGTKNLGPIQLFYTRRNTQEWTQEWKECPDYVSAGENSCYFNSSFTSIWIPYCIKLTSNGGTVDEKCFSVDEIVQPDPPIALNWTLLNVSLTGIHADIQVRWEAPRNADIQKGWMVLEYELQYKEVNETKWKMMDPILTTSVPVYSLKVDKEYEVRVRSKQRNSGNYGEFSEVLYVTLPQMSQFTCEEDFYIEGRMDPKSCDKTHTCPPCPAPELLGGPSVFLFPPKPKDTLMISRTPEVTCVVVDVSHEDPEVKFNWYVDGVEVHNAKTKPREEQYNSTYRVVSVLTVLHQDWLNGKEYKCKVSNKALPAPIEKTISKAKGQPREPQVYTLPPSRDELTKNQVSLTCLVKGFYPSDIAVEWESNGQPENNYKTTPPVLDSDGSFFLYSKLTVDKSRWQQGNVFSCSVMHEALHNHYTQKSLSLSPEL

Molecule: CC(C)[C@@H]1NC(=O)[C@H](C(C)C)NC(=O)[C@@H]2CCCCNC(=O)Cn3cc(c4ccccc43)C[C@H](NC(=O)[C@H](CC(N)=O)NC(=O)[C@H](CO)NC1=O)C(=O)N[C@@H](Cc1ccc(C(=O)O)cc1)C(=O)N[C@@H](CCCC(N)=O)C(=O)N[C@@H](Cc1c[nH]c3ccc(O)cc13)C(=O)NC(C)(C)C(=O)N[C@@H](C(C)C)C(=O)N[C@H](C(=O)NCCCC[C@H](NC(=O)CC[C@H](NC(=O)CC[C@H](NC(=O)CCCc1ccc(I)cc1)C(=O)O)C(=O)O)C(N)=O)CSCC(=O)N[C@@H](Cc1ccc(C(=O)O)cc1)C(=O)N2C [Compound 5] ({CH2CO}-[Phe(4-COOH)][NMeK]VVSN[Trp(1-CH2CO)][Phe(4-COOH)][Aad](NH2)[Trp(5-OH)][Aib]VC-X10; lactam 2-7; thioether N-13)
- Kd [1]: 3.07 nM

Molecule: CCCCC[C@@H]1NC(=O)[C@H](Cc2ccc(C(=O)O)cc2)NC(=O)[C@@H]2Cc3cn(c4ccccc34)CC(=O)NCCCC[C@@H](C(=O)N[C@@H](C(C)C)C(=O)N[C@@H](C(C)C)C(=O)N[C@@H](CO)C(=O)N[C@@H](CC(N)=O)C(=O)N2)N(C)C(=O)[C@H](Cc2ccc(C(=O)O)cc2)NC(=O)CSC[C@@H](C(=O)NCCCC[C@H](NC(=O)CC[C@H](NC(=O)CC[C@H](NC(=O)CCCc2ccc(I)cc2)C(=O)O)C(=O)O)C(N)=O)NC(=O)[C@H](C(C)C)NC(=O)C(C)(C)NC(=O)[C@H](Cc2c[nH]c3ccc(O)cc23)NC1=O [Compound 6] ({CH2CO}-[Phe(4-COOH)][NMeK]VVSN[Trp(1-CH2CO)][Phe(4-COOH)][Ahp(2)][Trp(5-OH)][Aib]VC-X10; lactam 2-7; thioether N-13)
- Kd [1]: 1.82 nM

Molecule: CC(C)[C@@H]1NC(=O)[C@H](C(C)C)NC(=O)[C@@H]2CCCCNC(=O)Cn3cc(c4ccccc43)C[C@H](NC(=O)[C@H](CC(N)=O)NC(=O)[C@H](CO)NC1=O)C(=O)N[C@@H](Cc1ccc(C(=O)O)cc1)C(=O)N[C@@H](CCCCN)C(=O)N[C@@H](Cc1c[nH]c3ccc(O)cc13)C(=O)NC(C)(C)C(=O)N[C@@H](C(C)C)C(=O)N[C@H](C(=O)NCCCC[C@H](NC(=O)CC[C@H](NC(=O)CC[C@H](NC(=O)CCCCCCCCCCCCCCC(=O)O)C(=O)O)C(=O)O)C(N)=O)CSCC(=O)N[C@@H](Cc1ccc(O)cc1)C(=O)N2C [Compound 24] ({CH2CO}-Y[NMeK]VVSN[Trp(1-CH2CO)][Phe(4-COOH)]K[Trp(5-OH)][Aib]VC-X3; lactam 2-7; thioether N-13)
- Kd [1]: 2.59 nM

B1: GhR_PD_215 (peptide)
peptide: {CH2CO}-[Phe(4-COOH)][NMeK]VVSN[Trp(1-CH2CO)]YK[Trp(5-OH)][Aib]VCK([Glu-Glu-Butanoyl(4-(4-I-phenyl))])-NH2
modifications: thioether N-13; lactam 2-7
notes: also called Compound No. 21
- Kd [2]: 1.07 nM

B3: GhR_PD_239 (peptide)
peptide: {CH2CO}-Y[NMeK]VVSN[Trp(1-CH2CO)][Phe(4-COOH)]K[Trp(5-OH)][A4pipaa]VCK([Glu-Glu-C16 diacid])-NH2
modifications: thioether N-13; lactam 2-7
notes: also called Compound No. 23
- Kd [2]: 2.29 nM

B6: GhR_PD_140 (peptide)
peptide: {CH2CO}-Y[NMeK]VVSN[Trp(1-CH2CO)]YK[Trp(5-OH)][Aib]VCG-NH2
modifications: thioether N-13; lactam 2-7 via G
notes: also called Compound No. 2
- Kd [2]: 1.22 nM

B8: GhR_PD_139 (peptide)
peptide: {CH2CO}-Y[NMeK]VVSN[Trp(1-CH2CO)]YK[Trp(5-OH)][Aib]VCG-NH2
modifications: thioether N-13; lactam 2-7
SMILES: CC(C)[C@@H]1NC(=O)[C@H](C(C)C)NC(=O)[C@@H]2CCCCNC(=O)Cn3cc(c4ccccc43)C[C@H](NC(=O)[C@H](CC(N)=O)NC(=O)[C@H](CO)NC1=O)C(=O)N[C@@H](Cc1ccc(O)cc1)C(=O)N[C@@H](CCCCN)C(=O)N[C@@H](Cc1c[nH]c3ccc(O)cc13)C(=O)NC(C)(C)C(=O)N[C@@H](C(C)C)C(=O)N[C@H](C(=O)NCC(N)=O)CSCC(=O)N[C@@H](Cc1ccc(O)cc1)C(=O)N2C
notes: also called Compound No. 1
- Kd [2]: 0.7 nM

B10: GhR_PD_246 (peptide)
peptide: {CH2CO}-Y[NMeK]VVSN[Trp(1-CH2CO)]YK[Trp(5-OH)][Aib]VCK([Glu-Glu-Butanoyl(4-(4-I-phenyl))])-NH2
modifications: thioether N-13; lactam 2-7
notes: also called Compound No. 32
- Kd [2]: 0.98 nM

B11: GhR_PD_238 (peptide)
peptide: {CH2CO}-[Phe(4-COOH)][NMeK]VVSN[Trp(1-CH2CO)]YK[Trp(5-OH)][A4pipaa]VCK([Glu-Glu-C16 diacid])-NH2
modifications: thioether N-13; lactam 2-7
notes: also called Compound No. 18
- Kd [2]: 2.4 nM

B12: GhR_PD_141 (peptide)
peptide: {CH2CO}-Y[NMeK]VVSN[Trp(1-CH2CO)]YK[Trp(5-OH)][Aib]VCG-NH2
modifications: thioether N-13; lactam 2-7 via Sar
notes: also called Compound No. 3
- Kd [2]: 1.71 nM

Other lines, results leading:

- Kd [1]: 1.07 nM
Molecule: COc1ccc2[nH]cc(C[C@@H]3NC(=O)[C@H](CC(N)=O)NC(=O)[C@H](CO)NC(=O)[C@H](C(C)C)NC(=O)[C@H](C(C)C)NC(=O)[C@H](CCCCNC(=O)CC[C@H](NC(=O)CCCc4ccc(I)cc4)C(=O)O)N(C)C(=O)[C@H](Cc4ccc(O)cc4)NC(=O)CSC[C@@H](C(=O)NCC(=O)N4CCC[C@H]4C(=O)N[C@H](CO)C(=O)N[C@H](CO)C(=O)N[C@H](CO)C(N)=O)NC(=O)[C@H](C(C)C)NC(=O)C(C)(C)NC(=O)[C@H](Cc4c[nH]c5ccc(O)cc45)NC(=O)[C@H](CCCCN)NC(=O)[C@H](Cc4ccc(O)cc4)NC3=O)c2c1 [Compound 46] ({CH2CO}-Y[NMeK]([γGlu-Butanoyl(4-(4-I-phenyl))])VVSN[Trp(5-OMe)]YK[Trp(5-OH)][Aib]VCGP[dS][dS][dS]-NH2; thioether N-13)

- Kd [1]: 2.71 nM
Molecule: CC(C)[C@@H]1NC(=O)[C@H](C(C)C)NC(=O)[C@@H]2CCCCNC(=O)Cn3cc(c4ccccc43)C[C@H](NC(=O)[C@H](CC(N)=O)NC(=O)[C@H](CO)NC1=O)C(=O)N[C@@H](Cc1ccc(O)cc1)C(=O)N[C@@H](CCCCNC(=O)N1CCN(CC(=O)O)CC1)C(=O)N[C@@H](Cc1c[nH]c3ccc(O)cc13)C(=O)NC(C)(C)C(=O)N[C@@H](C(C)C)C(=O)N[C@H](C(=O)NCC(=O)N1CCC[C@H]1C(=O)N[C@H](CO)C(=O)N[C@H](CO)C(=O)N[C@H](CO)C(=O)NCCCC[C@H](NC(=O)CC[C@H](NC(=O)CC[C@H](NC(=O)CCCCCCCCCCCCCCC(=O)O)C(=O)O)C(=O)O)C(N)=O)CSCC(=O)N[C@@H](Cc1ccc(O)cc1)C(=O)N2C [Compound 28] ({CH2CO}-Y[NMeK]VVSN[Trp(1-CH2CO)]YK([CO-Piperazinyl(4-CH2COOH)])[Trp(5-OH)][Aib]VCGP[dS][dS][dS]-X3; lactam 2-7; thioether N-13)

- Kd [2]: 2.59 nM
B2: GhR_PD_232 (peptide)
peptide: {CH2CO}-Y[NMeK]VVSN[Trp(1-CH2CO)][Phe(4-COOH)]K[Trp(5-OH)][Aib]VCK([Glu-Glu-C16 diacid])-NH2
modifications: thioether N-13; lactam 2-7
notes: also called Compound No. 24

- Kd [2]: 1.93 nM
B4: GhR_PD_231 (peptide)
peptide: {CH2CO}-[Phe(4-COOH)][NMeK]VVSN[Trp(1-CH2CO)]YK[Trp(5-OH)][Aib]VCK([Glu-Glu-C16 diacid])-NH2
modifications: thioether N-13; lactam 2-7
notes: also called Compound No. 19

- Kd [2]: 1.59 nM
B5: GhR_PD_216 (peptide)
peptide: {CH2CO}-Y[NMeK]VVSN[Trp(1-CH2CO)][Phe(4-COOH)]K[Trp(5-OH)][Aib]VCK([Glu-Glu-Butanoyl(4-(4-I-phenyl))])-NH2
modifications: thioether N-13; lactam 2-7
notes: also called Compound No. 26

- Kd [2]: 1.79 nM
B7: GhR_PD_234 (peptide)
peptide: {CH2CO}-Y[NMeK]VVSN[Trp(1-CH2CO)]Y[KCOpipzaa][Trp(5-OH)][Aib]VCK([Glu-Glu-C16 diacid])-NH2
modifications: thioether N-13; lactam 2-7
notes: also called Compound No. 27

- Kd [2]: 1.57 nM
B9: GhR_PD_237 (peptide)
peptide: {CH2CO}-Y[NMeK]VVSN[Trp(1-CH2CO)]YK[Trp(5-OH)][A4pipaa]VCK([Glu-Glu-C16 diacid])-NH2
modifications: thioether N-13; lactam 2-7
notes: also called Compound No. 29
